Experimental data: patent US20060127400A1, “Activation of regulatory T cells by alpha-melanocyte stimulating hormone” (THE SCHEPENS EYE RESEARCH INSTITUTE, INC., priority 1999, published 2006)

B1: TGF-β2: recombinant / purified human transforming growth factor-β2 (R&D Systems) (protein, UniProt P61812 303-414, looked up)
Transforming growth factor …: ALDAAYCFRNVQDNCCLRPLYIDFKRDLGWKWIHEPKGYNANFCAGACPYLWSSDTQHSRVLSLYNTINPEASASPCCVSQDLEPLTILYYIGKTPKIEQLSNMIVKSCKCS
modifications: Transforming growth factor beta-2
B2: sTGF-βRII: soluble TGF-β receptor type-two (R&D Systems), used to neutralize TGF-β activity (protein, UniProt P37173 23-166, looked up)
extracellular domain: TIPPHVQKSVNNDMIVTDNNGAVKFPQLCKFCDVRFSTCDNQKSCMSNCSITSICEKPQEVCVAVWRKNDENITLETVCHDPKLPYHDFILEDAASPKCIMKEKKKPGETFFMCSCSSDECNDNIIFSEEYNTSNPDLLLVIFQ
modifications: extracellular domain

What was measured:
primed Th1 cells = assay: in vitro regulatory T cell activity assay (IFN-γ of freshly activated primed Th1 cells in coculture); type: cell-based, mouse (BALB/c); conditions: for induction of regulatory T cell activity (suppression of IFN-γ of other Th1 cells), factor individually: α-MSH 30 pg/ml or TGF-β 5.0 ng/ml; for induction of regulatory T cell activity, TGF-β added 4 hours after TCR-stimulation in the presence of α-MSH: α-MSH 30 pg/ml, TGF-β 5.0 ng/ml
Method: (§1) Assay For In Vitro Regulatory T Cell Activity. The α-MSH-treated TCR-stimulated T cells, as described above, were cultured for 48 hours. The plate was spun down at 250×g for 10 minutes and supernatant discarded. Freshly isolated, enriched in vivo primed Th1 cells (4×10^6 cells/ml) mixed with 2C11 (1 μg/ml) were added (200 μl) to the wells of the α-MSH pre-treated, TCR-stimulated T cells and incubated for 48 hours. The culture supernatant was assayed for IFN-γ by sandwich ELISA. For long term cultures, primed T cells were TCR-stimulated in the presence of α-MSH for 48 hours. The plate was centrifuged and supernatant was exchanged for 200 μl of 2C11 (1 μg/ml) in fresh media, no x-MSH. The cultures were incubated for 72 hours and the conditioned media was again exchanged for fresh media and 2C11 antibody. The cultures were incubated for an additional 48 hours, centrifuged, supernatant discarded, and added were fresh in vivo primed Th1 cells and 2C11 antibody. Soluble TGF-β receptor II (sTGF-βRII, R&D Systems) was added to some of the cultures. These cultures were incubated for 48 hours and the culture supernatant was assayed for IFN-γ by sandwich ELISA.
Primed T cells (4×10^5 cells) were enriched and activated with anti-CD3 in the presence (α-MSH+anti-CD3) or absence (+anti-CD3) of α-MSH (30 pg/ml). After 48 hours of incubation the cells were mixed with freshly enriched primed Th1 cells (4×10^5 cells) and anti-CD3 antibody and cultured for 48 hours. The culture supernatant was assayed for IFN-γ by sandwich ELISA. Results are presented as IFN-γ pg/ml±SEM of eight independent experiments.
In addition, T cells initial TCR-stimulated in the presence of α-MSH and subsequently restimulated twice (Day 2 and Day 5) with anti-TCR antibody in the absence of α-MSH, still suppressed IFN-γ production by freshly activated primed Th1 cells (FIG. 6). […] Primed T cells (4×10^5 cells) were enriched and activated with anti-CD3 antibody in the presence of 30 pg/ml α-MSH (α-MSH+anti-CD3) or absence of α-MSH (+anti-CD3). After 48 hours of incubation the cells were centrifuged and resuspended in fresh media with anti-CD3 antibodies and incubated for 72 hours (day 5). The cells were again washed and re-stimulated with anti-CD3 and incubated for an additional 48 hours (day 7). After the final incubation the treated T cells (4×10^5 cells) were mixed with freshly enriched primed Th1 cells (4×10^5 cells) and anti-CD3 antibody and cultured for 48 hours. The culture supernatant was assayed for IFN-γ by sandwich ELISA. Results are presented as IFN-γ pg/ml±SEM of eight independent experiments. […] Therefore, α-MSH mediates induction of functionally active, regulatory Th3 cells.
TGF-β and α-MSH induce regulatory T cell activity. Primed T cells were TCR-stimulated in the presence or absence of 30 pg/ml α-MSH with TGF-β1 or TGF-β2 (5.0 ng/ml) added 4 hours after TCR-stimulation. The treated T cells (Regulatory T cells) were added to cultures of freshly activated primed T cells. Culture supernatants were assayed for IFN-γ 48 hours after addition of treated T cells. Data are presented as percent suppression±SEM of IFN-γ produced by freshly activated T cells with no added regulatory cells, from eight independent experiments.

primed T cells [1] = assay: proliferation of TCR-stimulated primed T cells (3H-thymidine incorporation); type: cell-based, mouse (BALB/c); conditions: for T cell proliferation, increasing concentrations of TGF-β: 0.005-5.0 ng/ml, regardless of the presence of α-MSH 30 pg/ml; for T cell proliferation, TGF-β added from the start of TCR-stimulation through 6 hours later: no α-MSH
primed T cells [2] = assay: total TGF-β production by TCR-stimulated primed T cells, Mv1Lu (CCL-64) bioassay; type: cell-based, mouse (BALB/c); conditions: α-MSH 30 pg/ml, TGF-β 5.0 ng/ml, 48 hours
Method: TGF-β bioassay. To measure total TGF-β, 100 μl of conditioned media was pretreated according to standard procedures (24) with 10 μl 1N HCL to lower the media pH to 2 and incubated for 1 hour at 4° C. The acid was neutralized with 20 μl of a 1:1 mixture of 1N NaOH: 1M HEPES returning the culture supernatant to a pH 7.3. The transiently acidified conditioned media was then used in the Mv1Lu assay; diluted 1:4 in EMEM+0.5% FBS. To the wells of a Falcon 96-well flat-bottom plate, 100 μl of diluted transiently acidified samples were added with 100 μl of 1×10^5 Mv1Lu cells (CCL-64; ATCC, Rockville, Md.). The plate was incubated for 20 hours at 37° C., 5% CO2 followed by the addition of 20 μl of 50 μCi/ml 3H-thymidine and the plate was incubated for an additional 4 hours. Supernatant was discarded and 50 μl of 10× Trypsin-EDTA (Biowhittaker, Walkersville, Md.) solution was added to each well and the plate was incubated for 15 minute at 37° C. The cells were collected onto filter paper using a Tomtec Plate Harvester 96 and counts per minute (CPM) of incorporation 3H-thymidine was measured using a Wallac 1205 Betaplate Liquid Scintillation Counter. Cultures of known amounts of purified activated TGF-β1, 20 ng/ml to 0.2 pg/ml (R&:D Systems), were prepared in the same plate for calculating a standard curve to quantify the concentration of total TGF-β in the samples.
Primed T Cell In Vitro Assays. From draining lymph nodes of BALB/c mice immunized 7 days previously with MT-Ag, primed T cells were isolated using CD3 enrichment columns (R&D Systems). T-cells (4×10^5 cells) suspended in serum-free media were added to the wells of a 96 well, round bottom plate (Corning). To the wells were added α-MSH (30 pg/ml) and anti-TCR antibody (2C11; 1 μg/ml) diluted in serum-free culture media. Various concentrations of TGF-β1 or TGF-β2 in media were added. In a second set of experiments TGF-β1 or TGF-β2 at a fixed concentration of 5 ng/ml were added to the wells at various times (0, 2, 4 and 6 hours) after addition of anti-TCR antibody. The cultures were incubated for 24 hours and 0.5 μCi of 3H-thymidine (NEM, Boston, Mass.) was added to the wells and the cultures were incubated for an additional 24 hours. The cells were collected and incorporated radiolabeled was measured by scintillation counting. Production of TGF-β by the treated primed T cells was done by centrifuging the culture plates 24 hours after the addition of anti-TCR antibody, removing the supernatant, washing the cultures once and adding fresh media. […]
FIG. 4 is a bar graph of TGF-β production by primed T cells TCR-stimulated in the presence of α-MSH. […] Significance (p=0.05) was determined by Student's t-test between TGF-β concentrations in cultures of activated α-MSH treated T cells and T cells activated in the absence of α-MSH. […]

TGF-β = assay: in vitro regulatory T cell assay with soluble TGF-β receptor type II added; type: cell-based, mouse; conditions: increasing amounts added to cocultures, 48 hours
Method: as §1
α-MSH induced regulatory T cells that through TGF-β suppress activation of other T cells. […] The regulatory T cells were washed and added to cultures of freshly TCR-stimulated primed T cells as described for FIG. 15. […]

Molecule	induction of regulatory T cell activity (suppression of IFN-γ of other Th1 cells), factor individually (primed Th1 cells)	induction of regulatory T cell activity, TGF-β added 4 hours after TCR-stimulation in the presence of α-MSH (primed Th1 cells)	T cell proliferation, increasing concentrations of TGF-β (primed T cells [1])	T cell proliferation, low concentrations of TGF-β (primed T cells [1]; TCR-stimulated primed T cells, FIG. 9)	T cell proliferation, TGF-β added from the start of TCR-stimulation through 6 hours later (primed T cells [1]; TGF-β 5.0 ng/ml)	α-MSH-induced TGF-β production after addition of TGF-β at various times after TCR-stimulation (primed T cells [2])	T cell proliferation, TGF-β added at or later than 4 hours after TCR-stimulation (primed T cells [1]; TGF-β 5.0 ng/ml, α-MSH 30 pg/ml present)	effect on suppression of IFN-γ production mediated by α-MSH-treated T cells (TGF-β)
TGF-β1: purified activated TGF-β1 (R&D Systems), transforming growth factor	could not alone or with α-MSH induce regulatory T cells	antagonized α-MSH-mediated induction of regulatory T cells	suppressed	either no effect or enhanced	suppressed	did not change		
B1	induced regulatory T cell activity	enhanced the regulatory activity	suppressed		suppressed	did enhance	recovered	
B2								neutralized
